Experimental data published in paper PMC7072391.

Biological target: tropomyosin receptor kinase A (TrkA) (rat (endogenous in primary septal cholinergic neurons)) (UniProt P35739)
Sequence of UniProt P35739 (P35739 33-799): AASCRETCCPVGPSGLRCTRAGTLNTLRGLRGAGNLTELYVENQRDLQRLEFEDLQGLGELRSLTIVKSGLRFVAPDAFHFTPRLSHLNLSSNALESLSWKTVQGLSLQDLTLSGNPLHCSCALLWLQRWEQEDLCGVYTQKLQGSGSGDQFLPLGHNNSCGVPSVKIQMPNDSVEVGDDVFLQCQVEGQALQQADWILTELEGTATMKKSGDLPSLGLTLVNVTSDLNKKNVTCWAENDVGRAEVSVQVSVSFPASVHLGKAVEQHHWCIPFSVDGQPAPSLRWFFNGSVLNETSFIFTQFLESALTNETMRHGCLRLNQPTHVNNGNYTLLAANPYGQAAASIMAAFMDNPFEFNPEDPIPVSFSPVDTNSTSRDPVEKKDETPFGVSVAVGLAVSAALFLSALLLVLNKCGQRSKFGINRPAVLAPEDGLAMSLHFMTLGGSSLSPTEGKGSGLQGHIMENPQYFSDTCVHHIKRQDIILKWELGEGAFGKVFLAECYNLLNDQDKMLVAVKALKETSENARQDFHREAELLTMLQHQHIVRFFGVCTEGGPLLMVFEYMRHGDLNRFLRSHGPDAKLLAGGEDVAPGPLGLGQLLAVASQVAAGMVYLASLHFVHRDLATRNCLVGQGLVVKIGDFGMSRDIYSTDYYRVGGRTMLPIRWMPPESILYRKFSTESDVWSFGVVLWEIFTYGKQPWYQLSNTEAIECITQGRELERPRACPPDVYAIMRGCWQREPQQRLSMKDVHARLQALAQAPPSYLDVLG

Substance	pTrkA (Y490) level by western blot, cholinergic neurons treated 7′ with 10 μM peptide	pTrkA (Y490) level by western blot, cholinergic neurons treated 7′ with 100 ng/mL (3.84 nM) NGF
hNGF1–15 dimer (peptide)	155 % of CTR	–
human NGF 1–14 sequence, monomeric hNGF1–14 peptide	153 % of CTR	–
Nerve Growth Factor (NGF), murine (from UniProt P01139 122-241) (ligand)	–	161 % of CTR
acetylated monomer Ac-hNGF1–14 peptide	296 % of CTR	–
